Data as given in the RNAGym collection of RNA variant scans (doi:10.1073/pnas.2313332121).

B1: TPR t1 (parent)
chain: GACCAAUCUGCCCUCAGAGCUCGAGAACAUCUUCGGAUGCAGAGGAGGCAGGCUUCGGUGGCGCGAUAGCGCCAACGUCCUCAACCUCCAAUGCAUCCCACCACAUGAUGAUGCCUGAAGAGCCUUGGUUUUUUG

Variants of: B1
Test: polymerase ribozyme fitness, log enrichment relative to wild type (log ratio); higher = more active; in vitro selection for triplet polymerase activity
Method in brief: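 Both subunits of a heterodimeric triplet polymerase ribozyme were given their own mutant library, built by PCR and transcribed. Each library was annealed with a biotinylated primer, the partner subunit and triplets, incubated frozen at −7 °C, and its extended constructs gel-excised, captured on streptavidin beads and amplified by RT-PCR, all in one round done in triplicate. Fitness is the logarithm of genotype enrichment relative to wild-type enrichment, with replicates averaged by inverse-variance weighting. That logarithm is base 2, and Illumina-sequenced genotypes needed ≥10 input reads and ≥1 read per output.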

| Variant | polymerase ribozyme fitness (log ratio) |
| --- | --- |
| GACCAAUCUGCCCUCAGAGCUCAAGAACAUCUUCGGAUGCAGAGGAGGCAGGCUUCGGUGGCGCGAUAGCGCCAACGUCCUCAACCUCCAAUGCAUCCCACCACAUGAUGAUGCCUUAAGAGCCUUGGUUUUUUG | -7.76 |
| GACCAAUCUGCCCUCAGAGCUCAAGAACAUCUUCGGAUGCAGAGGAGGCAGGCUUCGGUGGCCCGAUAGCGCCAACGUCCUCAACCUCCAAUGCAUCCCACCACAUGAUGAUGCCUGAAGAGCCUUGGUUUUUUG | -3.02 |
| GACCAAUCUGCCCUCAGAGCUCCAGAACAUCUUCGGAUGCAGAGGUGGCAGGCUUCGGUGGCGCGAUAGCGCCAACGUCCUCAACAUCCAAUGCAUCCCACCACAUGAUGAUGCCUGAUAAGCCUUGGUUUUUUG | -6.31 |
| GACCAAUCUGCCCUCAGAGCUCAAGAACAUCUUCGGAUGCAGAGGAGGCAGGCUUCGGUGGCGCGAUAGCGCCAACGUCCUCAACCUCCAAUGCAUUCCACCACAUGAUGAUGCCUGAAGUGCCUUGGUUUUUUG | -4.57 |
| GACCAAUCUGCCCUCAGAGCUUGAGAACAUCUUCGGAUGCAGAGGAGGCAGGCUUCGGUGGCGCGAUAGCGCCAACGUCCUCAACCUCCAAGGAAUCCCACCAGAUGAGGAUGCCUGAAGAAACAUGGUUUUUUG | -7.36 |
| GACCAAUCUGCCCUCAGAGCUCCAGGACAUCUUCGGAUGCAGAGGAGGCAGGCUUCGGUGGCGCGAUAGCGCCAACGUCCUUAACCUCCAAUGCAUCCCACCACAUGAUGAUGCCUGAACAGCCUUGGUUUUUUG | -4.02 |
| GACCAAUCUGCCCUCAGAGCUCAAGAACAUCUUCGGAUGCAGAGGAGGCAGGCUUCGGUGGCGCGAUAGCGCCAACGUCCUCAACCUCCAAUGCAUCCCACCACAUGAUGAUGCCUGAAGAGACUUGGUUUUUUG | -4.67 |
| GACCAAUCUGCCCUCAGAGCUCAAGAACAUCUUCGGAUGCAGAGGAGGCUGGCUUCGGUGGCGCGAUAGCGCCAACGUCCUCAACCUCCAAUGCAUCCCACCACAUGAUGAUGCCUGAAGAGCCUUGGUUUUUUG | -5.56 |
| GACCAAUCUGCCCUCAGAGCUCAAGAACAUCUUCGGAUGCAGAGGAGGCAGGCUUCGGUGGCGCGAUAGCACCAACGUCCUCAACCUCCAAUGCAUCCCACCACAUGAUGAUGCCUGAAGAGCCUUGGUUUUUUG | -5.75 |
| GACCAAUCUGCCCUCAGAGCUUGAGAACAUCUUCGGAUGCAGAGGAGGCAGGCUUCGGUGGCGCGAUAGCGCCAACGUCCUCAACCUCCAAUGCAUCCCACCACAUGAUGAUGCCUGAAGAGCCUUGGUGUUUUG | -3.78 |
| GACCAAUCUGCCCUCAGAGCUCAAGAACAUCUUCGGAUGCAGAGGAGGCAGGCUUCGGUGGCGCGAUAGCGCCAACGUCCUCAACCUCCAAUGCAUCCCACCACAUGAUGAUGCCUGAAGUGCCUUGGUUUUUUG | -2.19 |
| GACCAAUCUGCCCUCAGAGCUCAAGAACAUCUUCGGAUGCAGAGGAGGCAGGCUUUGGUGGCGCGAUAGCGCCAACGUCCUCAACCUCCAAUGCAUCCCACCACAUGAUGAUGCCUGAAGAGCCUUGGUUUUUUG | -3.66 |
| GACCAAUCUGCCCUCAGAGCUCCAGAACAUCUUCGGAUGCAGAGGAGGCAGGCUUCGGUGGCGCGAUAGCGCCAACGUCCUCAACCUCCAAUGCAUCCCACCACAUGAUGAUGCCUGAAGGGCCUUGGUUUUUUG | -6.91 |
| GACCAAUCUGCCCUCAGAGCUCCAGAACAUCUUCGGAUGCAGAGGAGGCAGGCUUCGGUGGCGCGAUAGAGCCAACGUCCUCAACCUCCAAUGCAUCCCACCACAUGAUGAUUCCUCAAGAGCCUUGGUUUUUUG | -6.09 |
| GACCAAUCUGCCCUCAGAGCUUGAGAACAUCUUCGGAUGCAGAGGAGGCAGGCUUCGGUGGCGCGAUAGCGCCAACGUCCUCAACCUCCAAUGCAUCCCACCACAUGAUGAUGCCUGAAGAGCCUUGGAUUUUUG | -5.14 |
| GACCAAUCUGCCCUCAGAGCUCAAGAACAUCUUCGGAUGCAGAGGAGGCAGGCUUCGGUGGCGCGAUAGCGCGAACGUCCUCAACCUCCAAUGCAUCCCACCACAUGAUGAUGCCUGAAGAGCCUUGGUUUUUUG | -3.9 |
| GACCAAUCUGCCCUCAGAGCUCAAGAACAUCUUCGGAUGCAGAGGAGGCAGGCUUCGGUGGCGCGAUAGCGCAAACGUCCUCAACCUCCAAUGCAUCCCACCACAUGAUGAUGCCUGAAGAGCCUUGGUUUUUUG | -5.86 |
| GACCAAUCUGCCCUCAGAGCUCAAGAACAUCUUCGGAUGCAGAGGAGGCAGGCUUUGCUGGCGCGAUAGUGCCAACGUCCUCAACCUCCAAUGCAUCCCACCAGAUGAUGAUGCCUGAAGAACCUUGGUUUUUUG | -7.86 |
| GACCAAUCUGCCCUCAGAGCUUGAGAACAUCUUCGGAUGCAGAGGAGGCAGGCUUCGGUGGCGCGAUAGCGCCAACGUCCUCAACCUCCAAUGCAACCCACCACAUGAUGAUGCCUGAAGAGCCUUGGUUUUUUG | -4.62 |
| GACCAAUCUGCCCUCAGAGCUCAAGAACAUCUUCGGAUGCAGAGAAGGCAGGCUUCGGUGGCGCGAUAGCGCCAACGUCCUCAACCUCCAAUGCAUCCCACCACAUGAUGAUGCCUGAAGAGCCUUGGUUUUUUG | -5.16 |
| GACCAAUCUGCCCUCAGAGCUCCAGAACAUCUUCGGAUGCAGAGGAGGCAGGUUUCGGUGGCGCGAUAGCGCCAACGUCCUCAACCUCCAAGGCAUCCCACCACAUGAUGAUGCCUGAAGAGUCUUGGUUUUUUG | -8.04 |
